The assay concerns the target biotinylated DAE10 peptide (Aβ1-10 conjugated to biotin at the carboxy-terminus). Description: SPR; BIAcore; biotinylated DAE10 peptide (Aβ1-10) immobilised on streptavidin coated chips at low density (4 to 7 RU); whole antibodies injected in triplicate at 100 nM, 30 μl/minute; apparent rate constants, bivalent model, KD corrected for active concentration of antibody. On the technique in general: SPR reads the build-up and loss of mass on a sensor chip optically.

B1: Humanized 3D6 version 1 (antibody, V domains shown)
VH: EVQLLESGGGLVQPGGSLRLSCAASGFTFSNYGMSWVRQAPGKGLEWVASIRSGGGRTYYSDNVKGRFTISRDNAKNSLYLQMNSLRAEDTALYYCVRYDHYSGSSDYWGQGTLVTVSS
VL: YVVMTQSPLSLPVTPGEPASISCKSSQSLLDSDGKTYLNWLLQKPGQSPQRLIYLVSKLDSGVPDRFSGSGSGTDFTLKISRVEAEDVGVYYCWQGTHFPRTFGQGTKVEIK
As for B1, the Kd stood at 2.1 nM, the koff is 0.000399 s⁻¹ and the kon was 189000 M⁻¹ s⁻¹.

B2: Bapineuzumab (humanized 3D6, version 2) (antibody, V domains shown)
VH: EVQLLESGGGLVQPGGSLRLSCAASGFTFSNYGMSWVRQAPGKGLEWVASIRSGGGRTYYSDNVKGRFTISRDNSKNTLYLQMNSLRAEDTAVYYCVRYDHYSGSSDYWGQGTLVTVSS
VL: DVVMTQSPLSLPVTPGEPASISCKSSQSLLDSDGKTYLNWLLQKPGQSPQRLIYLVSKLDSGVPDRFSGSGSGTDFTLKISRVEAEDVGVYYCWQGTHFPRTFGQGTKVEIK
With B2, the Kd is 2.8 nM, the off-rate (koff) turned out to be 0.000423 s⁻¹ and the kon is 150000 M⁻¹ s⁻¹.

Broadly, the koff is the first-order rate constant of dissociation. The kon is the rate constant with which the complex forms.

Values taken from paper PMC4095729.
